Test system: K4 kissing-loop RNA reporter
Assay: apparent KD of K4 kissing-loop reporter; higher = weaker reporter binding
Details: Eterna round: R107
Method: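 RNA-MaP round R107: designed RNA switches with theophylline, tryptophan, arginine or FMN aptamers are transcribed on-chip within common flanks. They are titrated with a labelled K4 kissing-loop RNA reporter in RNA-MaP buffer (100 mM Tris pH 7.5, 80 mM KCl, 4 mM MgCl2), without ligand or with the indicated ligand. Median apparent KD per design.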

[1] = input ligand: theophylline 20 uM
[2] = input ligand: tryptophan 2.4 mM
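Also: bound reporter read as fluorescence of individual clusters on recovered sequencing chips by microscopy, with normalized cluster intensities fitted with a binding model.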

Row | Sequence | apparent KD of K4 kissing-loop reporter (input ligand: FMN 200 uM) [nM] | apparent KD of K4 kissing-loop reporter (input ligand: arginine 13.2 mM) [nM] | apparent KD of K4 kissing-loop reporter (input ligand: none) [nM] | apparent KD of K4 kissing-loop reporter [1] [nM] | apparent KD of K4 kissing-loop reporter [2] [nM]
1 | AGAGUUAUGCGAGGAUAUGCAGUUAGUACUCAAAGAGUACUAACAGCAGAGUGAUGUUCUGUGAAAGCAGAAGGUGCAUAACUCA [Omei KL FMN B SS B v7] | 153 | 630 | 1120 | 641 | 671
2 | AAACUUGCAGUGAUGUUGCAAGUAGGUGAUACCAGCAUCGAAAGAUGCCCUUGGCAGCACCAAAACAUCACUUAGGUGCUGUCUA [(H1)-(H2)-(T1)-(T2)-(H)'-(T)'_Design6] | 757 | 494 | 622 | 603 | 614
3 | AAUUUAUUAUCUGAUACCAGACUUUUUCUUGUUUAUAAGUCAAGUGAUGUUUGACUUUUAGUCCCUUGGCAGCAGUAUUUUUUAA [JR_Nu_SSTheophyB_Sub026] | 125 | 128 | 123 | 113 | 114
4 | CCGACUGCAGGAAGGAGCGGCGGUUGGAGUGAUGUUCCGGGUAGUGAUGUUACCAAACUCCGCCAGGUAGGUCGCCUGUUGCUCG [Same State Arginine B GF10] | 151 | 112 | 165 | 179 | 144
5 | UGUCAUUGGUCGGCCGCCACUUCGGUCAAAGACCAUAAAGAGUGAUGUUCUUAAGACGAAAGUCGAAGGACCGGGACCGAUGACU [TrypBS 11 #SwitchBubble #K4Middle] | 1110 | 744 | 1200 | 782 | 273
6 | GGUUCCUCAGUGAUGUUGAGGUGACCUCGGCAGGAUAUAGGCAUUACUAGAAGGGCCAAAAGAACCCUGUCCAGCGACACAGGGA [Zalatiat] | 159 | 238 | 305 | 250 | 232
7 | GGUUUAUAGGAGGAUACCAGUACAAAUAAAGUACAUUAAUAGUAGAGUGAUGUUCUAAAGUACCCUUGGCAGCUUAGAUUAAGUU [ExTheophylB.G] | 92.6 | 181 | 111 | 188 | 76.4
8 | CUGUCCUACGAAGGAUAUGCUGAUGGGAUCAAACAGUGAUGUUGUUAUGAACUUAGGCUUAUGUGCGCAGAAGGUCGUGGCGACG [theeternabot_sameState_KL_FMN_B_42] | 236 | 396 | 264 | 801 | 546
9 | CUUAAGAUAUGAGUGAUGUUUAUGUCCGAAGGAGCGUGCGAAAGUACAGGUAGGUCGCGGAUGUGAGUGAUGUUUAUGUAAGCGA [KL-XArg-A14 #analogue] | 121 | 37.1 | 120 | 75 | 103
10 | GCUAUGGUUGGAAGGAGCGUUGAAUUGUUAGUAAGAGUGAUGUUCGAUAGUGGACAGUUGUAGCAGGUAGGUCGCCAACUAUAGC [KL-Arg B28] | 329 | 570 | 277 | 560 | 520
11 | AGGUAGUCCCUUGUUGUCAUCGAAGAUGAACGAGGACCGGUACGGCCGCCACUCGGAGUGAUGUUCCGAUGGCUGCAAAAUAAAA [MatMod 23 - Jieux - Exclusion - Tryptophan A] | 108 | 89 | 97.2 | 85.9 | 103
12 | AAUUUAGUGACGGCCGCCACUAGGGUGAUUUUUUUGUUUGAGUGAUGUUUUGAUGUUUGAUUUUGUAGGACCGGGUUAGGUGAUG [cccmullin] | 327 | 310 | 343 | 364 | 262
13 | AUAUAGAGUGAUGUUCAUGAGUAUUUCGAAGGAGCGCUAAAUAAGGCAGGUAGGUCGCGGAAAAUAUAUAUAUAGAUAUAUAUAU [KL-SSArg-A29] | 168 | 351 | 535 | 665 | 280
14 | UUGGCAGUGAUGUUGCCAGAGCUCACCGAAGGAGCGCGUGAAAACGCAGGUAGGUCGCGGUAGCGGAGUGAUUCUCCGCGAGGGC [Same State Arginine A GF 21] | 44.5 | 71.7 | 77.2 | 80.3 | 87.9
15 | UGUAAUGAGUGAUGUUCAUGUAGUAAGGAUACCAGUAAUUCAAAAUGCCCUUGGCAGCUUAGUUCUAUCUAUAGUUGGGUAGUGG [Theophilline A V4 (+5U)] | 162 | 209 | 205 | 206 | 123
16 | AGUGAUAUAUGAGGAUAUGGGUUGGUUAAUGAGUUAGUUUUAGUGUUGUUUGGUUAGUGAUGUUAUUUAGAAGGCGUGAGUGAUG [sffdsmullin] | 99.6 | 88.3 | 81.8 | 95.8 | 71.8
17 | AGGUUUUGAUUAGGAUAUGCACUGAGGAGGAGAAUAUAGUGAUGUUAUAUAAGAGGAAGGAGAAGAGUAGAAGGGAUUGAGGUUU [SSFMNB.Q] | 156 | 285 | 191 | 197 | 190
18 | UGAUUUAACUGAAGGAGCGGCAAUUGAUAAGUAAAUAUAGUGAUGUUAUAUAAGAUAGAGAGCCAGGUAGGUCGCAGAGGGAGGA [ExArgB.J] | 169 | 139 | 159 | 159 | 129
